Assay results as given in publication PMC3935945, “Insight into Highly Conserved H1 Subtype-Specific Epitopes in Influenza Virus Hemagglutinin” (PLoS ONE, 2014).
Changes are numbered by the printed parent chain.

Columns and labels:
Experiment in all cases: ELISA
[1] = target: T1, hemagglutinin (HA) of H1N1 A/Thailand/CU44/2006 (CU44) (Influenza A virus A/Thailand/CU44/2006 …, UniProt A7LI25, strain); details: both partners purified
T1 construct: also called CU44 HA

[2] = target: T2, recombinant hemagglutinin (HA) of 2009 pandemic virus A/Korea/01/2009 (KR01) (Influenza A virus A/Korea/01/2009 (H1N1), strain); details: both partners purified
T2 construct: also called KR01 HA; H1N1 HA

[3] = target: T3, HA from A/California/07/2009(H1N1) (Influenza A virus A/California/07/2009 …, UniProt C3W5X2, strain)
T3 construct: also called CA07

[4] = target: T4, HA from A/Brisbane/59/2007(H1N1) (Influenza A virus A/Brisbane/59/2007 …, UniProt D5F1Q8, strain)
T4 construct: also called BR59

[5] = target: T5, HA from A/California/04/2009(H1N1) (Influenza A virus A/California/04/2009 …, UniProt C3W5S1, strain)
T5 construct: also called CA04

Measured: binding result

B1: H1-specific monoclonal antibody GC0587 (antibody, V domains shown)
VH: VKLQQSGGGVVQPGGSLRLSCAASGFTFSDYDMSWIRQAPGKGLEWVSGILGGSERSYYRDSVKGRFTISRDNSRKTLYLQMNSLRAEDTAVYYCARHGSPGYTLYAWDYWGQGTMVTVSS
VL: DIQMTQSPASLAVSPGQRATITCRASESVSNYGINFINWFQQKPGQPPKLLIYTASNKGTGVPARFSGSGSGTDFTLTINPVEAEDTANYFCQQTKEVPYTFGGGTKLEIK
notes: copies: 2 + 2
binds: [1] | [2] | [3] | [4] | [5]

B2: H1-specific monoclonal antibody GC0757 (antibody, V domains shown)
VH: VKLQESGAVVQPGGSLRLSCAASGFTGSDYDMSWIRQAPGKGLEWVSGILGGSERSYYRDSVKGRSTISRDNSRKTLYLEMNSLRAEDTAVYYCARHSWGAYVQYGMDGWGQGTTVTVSS
VL: B1 VL with T101G, F102T, G103F
notes: copies: 2 + 2
binds: [1] | [2] | [3] | [4] | [5]
